Measured values: patent US20220011297A1, “METHOD FOR PREDICTING EFFECT OF IMMUNE CHECKPOINT INHIBITOR” (NAGASAKI UNIVERSITY, priority 2018, published 2022)

Test system: lung cancer patients
Assay: Multicenter study of nivolumab in lung cancer patients: adverse events (interstitial pneumonia)
Excerpt: Multicenter study ([sequence] University Hospital, Nagasaki Genbaku Hospital) [Subjects] Lung cancer patients [Selection criteria]
Employed were patients who had been histologically confirmed to have lung cancer through computed tomography (any T, any N, and M1, stage IV), and
who were 20 to 75 years old with performance status (PS) of 0 and retaining the functions of main tissues, met the study criteria of our institution, and voluntarily submitted a consent form to participate in the study after receiving explanation on the characteristics of the study.
This blood collection is performed concomitantly with regular blood collection during hospitalization, and no additional puncture is performed for the blood collection.

nivolumab: human-type anti-PD-1 monoclonal antibody
interstitial pneumonia with DAD (diffuse alveolar damage), acute exacerbation (13 lung cancer patients given nivolumab, other two cases OP): TR01 and TR02 were presenting with DAD | death (among DAD cases, in spite of discontinuation of administration): one case resulted in death
